Laboratory results published in patent EP1379283B1, “IDENTIFICATION OF TARGET-SPECIFIC FOLDING SITES IN PEPTIDES AND PROTEINS” (Palatin Technologies, Inc., priority 2000, dated 2002).
Square brackets hold non-standard residues; d marks the D form. Ends that are not written are not given here. dChg = N[C@@H](C(=O)O)C1CCCCC1; Chg = N[C@H](C(=O)O)C1CCCCC1; Orn = NCCC[C@H](N)C(=O)O; Dap = NC[C@H](N)C(=O)O

How the values were obtained:
uPA receptor = target: T1, uPA receptor (Homo sapiens, UniProt Q03405); assay: uPA receptor-binding assay using U937 cells and ATF as competitive ligand; conditions: 1 µM metallopeptide; U937 cells; ATF as competitive receptor binding ligand
T1 construct: endogenous in cells; host or cells: U937 cells
T1 sequence (Q03405 23-335): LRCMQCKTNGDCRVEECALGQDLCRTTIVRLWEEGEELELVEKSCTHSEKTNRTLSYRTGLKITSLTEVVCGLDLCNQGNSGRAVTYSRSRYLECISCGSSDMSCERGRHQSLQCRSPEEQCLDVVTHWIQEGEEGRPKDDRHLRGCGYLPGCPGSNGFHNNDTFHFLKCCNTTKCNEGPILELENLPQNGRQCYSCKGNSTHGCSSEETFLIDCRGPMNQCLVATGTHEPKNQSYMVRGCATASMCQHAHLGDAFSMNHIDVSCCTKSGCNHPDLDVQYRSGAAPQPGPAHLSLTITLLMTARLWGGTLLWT

oxytocin receptor = target: T2, oxytocin receptor (Rattus norvegicus, UniProt P70536); assay: oxytocin receptor binding, 3H-oxytocin, cell membranes from rat uterus; conditions: for % Inhibition at 1 µM Oxytocin Receptor: rat uterus membranes, 3H-oxytocin; for activity at oxytocin receptor: conclusion from Table 30
T2 construct: cell membranes prepared from rat uterus; from tissue; host or cells: rat uterus membranes
T2 sequence (P70536 1-388): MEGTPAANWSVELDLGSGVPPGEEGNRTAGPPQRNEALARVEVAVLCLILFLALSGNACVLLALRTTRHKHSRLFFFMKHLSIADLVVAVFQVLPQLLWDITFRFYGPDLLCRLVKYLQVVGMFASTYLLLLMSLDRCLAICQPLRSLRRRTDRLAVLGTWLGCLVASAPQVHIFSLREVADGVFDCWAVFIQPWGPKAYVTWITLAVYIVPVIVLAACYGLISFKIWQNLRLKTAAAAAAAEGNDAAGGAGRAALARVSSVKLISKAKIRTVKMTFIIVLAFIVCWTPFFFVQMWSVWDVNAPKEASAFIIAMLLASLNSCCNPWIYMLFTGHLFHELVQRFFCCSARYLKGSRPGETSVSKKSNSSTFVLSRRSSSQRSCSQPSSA
Protocol: The screening of metallopeptides for binding to oxytocin receptor was done using cell membranes prepared from rat uterus. […] The membrane preparations (10 - 50 µg/well) were incubated with 412-800 pM ^3H-oxytocin in HEPES Buffer containing 0.2% bovine serum albumin along with a test compound (1 µM final assay concentration) for 2 hours at 4° C. Non-specific binding was determined by addition of 10^-6 M oxytocin instead of the test compound. After incubation, the membranes were filtered and washed three times with ice-cold PBS. The membranes were air-dried and punched directly into scintillation vials. After addition of the scintillation cocktail, the vials were capped and gently shaken for 12 hours to dissolve the radioactivity contained in the filters. The vials were then read for tritium counts in a scintillation counter. Specific binding was determined as the radioactivity in wells containing ^3H-oxytocin alone minus the radioactivity in wells containing 10^-6 M oxytocin. The assay was performed in triplicates. The activity profile for the test compounds were generated by their ability to inhibit specific binding of the radiotracer to its receptor.

vasopressin-1 receptor = target: T3, vasopressin-1 receptor (Rattus norvegicus, UniProt P30560); assay: vasopressin-1 receptor binding, 3H-vasopressin-1 antagonist, cell membranes from rat liver
T3 construct: cell membranes prepared from rat liver; from tissue; host or cells: rat liver membranes
T3 sequence (P30560 whole entry): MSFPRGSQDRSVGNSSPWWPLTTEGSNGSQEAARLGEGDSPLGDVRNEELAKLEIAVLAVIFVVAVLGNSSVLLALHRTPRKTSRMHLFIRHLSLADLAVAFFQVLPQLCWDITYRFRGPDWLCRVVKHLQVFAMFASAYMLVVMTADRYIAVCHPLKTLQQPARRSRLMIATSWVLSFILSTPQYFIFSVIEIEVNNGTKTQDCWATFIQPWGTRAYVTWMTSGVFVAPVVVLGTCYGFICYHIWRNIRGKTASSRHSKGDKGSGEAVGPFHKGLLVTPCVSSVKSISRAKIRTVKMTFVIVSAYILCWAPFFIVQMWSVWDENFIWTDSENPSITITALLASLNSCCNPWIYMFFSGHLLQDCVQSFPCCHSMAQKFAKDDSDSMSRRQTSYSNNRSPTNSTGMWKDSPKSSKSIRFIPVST
Protocol: The screening of compounds for vasopressin-1 receptor was performed using cell membranes prepared from rat liver. The assay was essentially performed as described above for the oxytocin receptor assay. In this assay 2-4 nM ^3H-vasopressin-1 antagonist (obtained from Perkin Elemer- NEN Life Sciences) was used as the radiotracer and Arg^8-vasopressin (1 µM final concentration in the assay) was used to determine non-specific binding. The assay was performed in triplicates. Activity profile for the test compounds were generated by their ability to inhibit specific binding of the radiotracer to its receptor.

[1] = Table 30, oxytocin ligand library
[2] = Table 29, vasopressin ligand library

In the case of “Ac-Val-Ser-Asn-Cys-Lys-Tyr-Phe-Ser-Asn-Ile-His-Trp-NH2 (Ac-VSNCKYFSNIHW-NH2; not fully specified (bridges); printed as Ac-Val-Ser-Asn-Cys-Lys-Tyr-Phe-Ser-Asn-Ile-His-Trp-NH2; also: oxorhenium(V) N3S1 metal chelate (X-X-Cys)) [SEQ ID NO:5]”, the “% Inhibition at 1 µM” value (uPA receptor) is reported as 0.0%.

“Ac-Val-Ser-Asn-Lys-Cys-Tyr-Phe-Ser-Asn-Ile-His-Trp-NH2 (Ac-VSNKCYFSNIHW-NH2; not fully specified (bridges); printed as Ac-Val-Ser-Asn-Lys-Cys-Tyr-Phe-Ser-Asn-Ile-His-Trp-NH2; also: oxorhenium(V) N3S1 metal chelate (X-X-Cys)) [SEQ ID NO:6]” was tested, and the “% Inhibition at 1 µM” value (uPA receptor) was 13.0%.

For “Ac-Val-Ser-Asn-Lys-Tyr-Cys-Phe-Ser-Asn-Ile-His-Trp-NH2 (Ac-VSNKYCFSNIHW-NH2; not fully specified (bridges); printed as Ac-Val-Ser-Asn-Lys-Tyr-Cys-Phe-Ser-Asn-Ile-His-Trp-NH2; also: oxorhenium(V) N3S1 metal chelate (X-X-Cys)) [SEQ ID NO:7]”, the “% Inhibition at 1 µM” value (uPA receptor) was 18.0%.

“Ac-Val-Ser-Asn-Lys-Tyr-Phe-Cys-Ser-Asn-Ile-His-Trp-NH2 (Ac-VSNKYFCSNIHW-NH2; not fully specified (bridges); printed as Ac-Val-Ser-Asn-Lys-Tyr-Phe-Cys-Ser-Asn-Ile-His-Trp-NH2; also: oxorhenium(V) N3S1 metal chelate (X-X-Cys)) [SEQ ID NO:8]” was tested, and the “% Inhibition at 1 µM” value (uPA receptor) was 0.0%.

In the case of “Ac-Val-Ser-Asn-Lys-Tyr-Phe-Ser-Asn-Cys-Ile-His-Trp-NH2 (Ac-VSNKYFSNCIHW-NH2; not fully specified (bridges); printed as Ac-Val-Ser-Asn-Lys-Tyr-Phe-Ser-Asn-Cys-Ile-His-Trp-NH2; also: oxorhenium(V) N3S1 metal chelate (X-X-Cys)) [SEQ ID NO:10]”, the “% Inhibition at 1 µM” value (uPA receptor) is reported as 32.0%.

For “Ala-Tyr-Cys-Ile-Gln-Asn-Ala-Pro-Leu-Gly-NH2 (AYCIQNAPLG-NH2; not fully specified (bridges); printed as Ala-Tyr-Cys-Ile-Gln-Asn-Ala-Pro-Leu-Gly-NH2; also: oxorhenium(V) N3S1 metal chelate (X-X-Cys)) [SEQ ID NO:158]”, the “% Inhibition at 1 µM Oxytocin Receptor” value (oxytocin receptor; [1]) was 6% and the “% Inhibition at 1 µM Vasopressin-1 Receptor” value (vasopressin-1 receptor; [1]) was 1%.

“Ala-Tyr-Ile-Cys-Gln-Asn-Ala-Pro-Leu-Gly-NH2 (AYICQNAPLG-NH2; not fully specified (bridges); printed as Ala-Tyr-Ile-Cys-Gln-Asn-Ala-Pro-Leu-Gly-NH2; also: oxorhenium(V) N3S1 metal chelate (X-X-Cys)) [SEQ ID NO:157]” was tested, and the “% Inhibition at 1 µM Oxytocin Receptor” value (oxytocin receptor; [1]) was 0% and the “% Inhibition at 1 µM Vasopressin-1 Receptor” value (vasopressin-1 receptor; [1]) was 0%.

With “Ala-Tyr-Ile-Gln-Asn-Ala-Ala-Cys-Leu-Gly-NH2 (AYIQNAACLG-NH2; not fully specified (bridges); printed as Ala-Tyr-Ile-Gln-Asn-Ala-Ala-Cys-Leu-Gly-NH2; also: oxorhenium(V) N3S1 metal chelate (X-X-Cys)) [SEQ ID NO:152]” the “% Inhibition at 1 µM Oxytocin Receptor” value (oxytocin receptor; [1]) was 0% and the “% Inhibition at 1 µM Vasopressin-1 Receptor” value (vasopressin-1 receptor; [1]) was 1%.

“Ala-Tyr-Ile-Gln-Asn-Ala-Ala-Leu-Cys-Gly-NH2 (AYIQNAALCG-NH2; not fully specified (bridges); printed as Ala-Tyr-Ile-Gln-Asn-Ala-Ala-Leu-Cys-Gly-NH2; also: oxorhenium(V) N3S1 metal chelate (X-X-Cys)) [SEQ ID NO:151]” was tested, and the “% Inhibition at 1 µM Oxytocin Receptor” value (oxytocin receptor; [1]) was 0% and the “% Inhibition at 1 µM Vasopressin-1 Receptor” value (vasopressin-1 receptor; [1]) was 0%.

“Ala-Tyr-Ile-Gln-Asn-Ala-Ala-Leu-Gly-Cys-NH2 (AYIQNAALGC-NH2; not fully specified (bridges); printed as Ala-Tyr-Ile-Gln-Asn-Ala-Ala-Leu-Gly-Cys-NH2; also: oxorhenium(V) N3S1 metal chelate (X-X-Cys)) [SEQ ID NO:150]” was tested, and the “% Inhibition at 1 µM Oxytocin Receptor” value (oxytocin receptor; [1]) was 0% and the “% Inhibition at 1 µM Vasopressin-1 Receptor” value (vasopressin-1 receptor; [1]) was 0%.

For “Ala-Tyr-Ile-Gln-Asn-Ala-Cys-Ala-Leu-Gly-NH2 (AYIQNACALG-NH2; not fully specified (bridges); printed as Ala-Tyr-Ile-Gln-Asn-Ala-Cys-Ala-Leu-Gly-NH2; also: oxorhenium(V) N3S1 metal chelate (X-X-Cys)) [SEQ ID NO:154]”, the “% Inhibition at 1 µM Oxytocin Receptor” value (oxytocin receptor; [1]) was 31%, the “activity at oxytocin receptor” value (oxytocin receptor) was “active” and the “% Inhibition at 1 µM Vasopressin-1 Receptor” value (vasopressin-1 receptor; [1]) was 0%.

For “Ala-Tyr-Ile-Gln-Asn-Ala-Cys-Pro-Leu-Gly-NH2 (AYIQNACPLG-NH2; not fully specified (bridges); printed as Ala-Tyr-Ile-Gln-Asn-Ala-Cys-Pro-Leu-Gly-NH2; also: oxorhenium(V) N3S1 metal chelate (X-X-Cys)) [SEQ ID NO:153]”, the “% Inhibition at 1 µM Oxytocin Receptor” value (oxytocin receptor; [1]) was 2% and the “% Inhibition at 1 µM Vasopressin-1 Receptor” value (vasopressin-1 receptor; [1]) was 0%.

For “Ala-Tyr-Ile-Gln-Asn-Ala-Pro-Leu-Gly-Cys-NH2 (AYIQNAPLGC-NH2; not fully specified (bridges); printed as Ala-Tyr-Ile-Gln-Asn-Ala-Pro-Leu-Gly-Cys-NH2; also: oxorhenium(V) N3S1 metal chelate (X-X-Cys)) [SEQ ID NO:149]”, the “% Inhibition at 1 µM Oxytocin Receptor” value (oxytocin receptor; [1]) was 6% and the “% Inhibition at 1 µM Vasopressin-1 Receptor” value (vasopressin-1 receptor; [1]) was 0%.

With “Ala-Tyr-Ile-Gln-Asn-Cys-Ala-Pro-Leu-Gly-NH2 (AYIQNCAPLG-NH2; not fully specified (bridges); printed as Ala-Tyr-Ile-Gln-Asn-Cys-Ala-Pro-Leu-Gly-NH2; also: oxorhenium(V) N3S1 metal chelate (X-X-Cys)) [SEQ ID NO:155]” the “activity at oxytocin receptor” value (oxytocin receptor) was “maximal activity” and the “% Inhibition at 1 µM Vasopressin-1 Receptor” value (vasopressin-1 receptor; [1]) was 0%.

In the case of “Ala-Tyr-Ile-Gln-Cys-Asn-Ala-Pro-Leu-Gly-NH2 (AYIQCNAPLG-NH2; not fully specified (bridges); printed as Ala-Tyr-Ile-Gln-Cys-Asn-Ala-Pro-Leu-Gly-NH2; also: oxorhenium(V) N3S1 metal chelate (X-X-Cys)) [SEQ ID NO:156]”, the “% Inhibition at 1 µM Oxytocin Receptor” value (oxytocin receptor; [1]) is reported as 18%, the “activity at oxytocin receptor” value (oxytocin receptor) is reported as “active” and the “% Inhibition at 1 µM Vasopressin-1 Receptor” value (vasopressin-1 receptor; [1]) is reported as 0%.

“Caca-D-Trp-Ile-Cys-Thr-Dap-Ala-Pro-Orn-NH2” was tested, and the “% Inhibition at 1 µM Oxytocin Receptor” value (oxytocin receptor; [2]) was 0% and the “% Inhibition at 1 µM Vasopressin-1 Receptor” value (vasopressin-1 receptor; [2]) was 52%.

“Caca-D-Trp-Ile-Thr-Cys-Dap-Ala-Pro-Orn-NH2” was tested, and the “% Inhibition at 1 µM Oxytocin Receptor” value (oxytocin receptor; [2]) was 0% and the “% Inhibition at 1 µM Vasopressin-1 Receptor” value (vasopressin-1 receptor; [2]) was 0%.

“Caca-D-Trp-Ile-Thr-Dap-Ala-Ala-Cys-Orn-NH2” was tested, and the “% Inhibition at 1 µM Oxytocin Receptor” value (oxytocin receptor; [2]) was 0% and the “% Inhibition at 1 µM Vasopressin-1 Receptor” value (vasopressin-1 receptor; [2]) was 0%.

“Caca-D-Trp-Ile-Thr-Dap-Ala-Ala-Orn-Cys-NH2” was tested, and the “% Inhibition at 1 µM Oxytocin Receptor” value (oxytocin receptor; [2]) was 0% and the “% Inhibition at 1 µM Vasopressin-1 Receptor” value (vasopressin-1 receptor; [2]) was 23%.

For “Caca-D-Trp-Ile-Thr-Dap-Ala-Cys-Ala-Orn-NH2”, the “% Inhibition at 1 µM Oxytocin Receptor” value (oxytocin receptor; [2]) was 0% and the “% Inhibition at 1 µM Vasopressin-1 Receptor” value (vasopressin-1 receptor; [2]) was 0%.

For “Caca-D-Trp-Ile-Thr-Dap-Ala-Cys-Pro-Orn-NH2”, the “% Inhibition at 1 µM Oxytocin Receptor” value (oxytocin receptor; [2]) was 0% and the “% Inhibition at 1 µM Vasopressin-1 Receptor” value (vasopressin-1 receptor; [2]) was 0%.

With “Caca-D-Trp-Ile-Thr-Dap-Cys-Ala-Pro-Orn-NH2” the “% Inhibition at 1 µM Oxytocin Receptor” value (oxytocin receptor; [2]) was 9% and the “% Inhibition at 1 µM Vasopressin-1 Receptor” value (vasopressin-1 receptor; [2]) was 22%.

“Pmp-D-Trp-Cys-Ile-Thr-Dap-Ala-Pro-Orn-NH2” was tested, and the “% Inhibition at 1 µM Oxytocin Receptor” value (oxytocin receptor; [2]) was 0% and the “% Inhibition at 1 µM Vasopressin-1 Receptor” value (vasopressin-1 receptor; [2]) was 23%.

In the case of [Chg][dW]CIT[Dap]AP[Orn]-NH2, the “% Inhibition at 1 µM Oxytocin Receptor” value (oxytocin receptor; [2]) is reported as 0% and the “% Inhibition at 1 µM Vasopressin-1 Receptor” value (vasopressin-1 receptor; [2]) is reported as 0%.

[dChg][dW]CIT[Dap]AP[Orn]-NH2 was tested, and the “% Inhibition at 1 µM Oxytocin Receptor” value (oxytocin receptor; [2]) was 0% and the “% Inhibition at 1 µM Vasopressin-1 Receptor” value (vasopressin-1 receptor; [2]) was 8%.
